The values that follow come from the supplement of paper PMC9233669.

One series has as its system biotinyl-Phe-oxazolone. In words: self-aminoacylation, catalytic enhancement (BFO) (fold over background); higher = more active; k-Seq, kA / k0A0; sequences stand for … in GGGAAUGGAUCCACAUCUACGAAUUC…UUCACUGCAGACUUGACGAAGCUG
The essentials:
(§1)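 Mutagenized RNA pools (0.43 μM; 21-nt variable region) were treated with 2–1250 μM of each biotinyl-aminoacyl-oxazolone. Conditions were 50 μL HEPES/NaCl/KCl/MgCl2/CaCl2 buffer, 5% acetonitrile, pH 6.9–7.0, room temperature, 90 minutes. Catalytic enhancement, the median kA relative to the uncatalyzed rate, was derived from streptavidin capture, qPCR and Illumina sequencing.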

In the next series the test system is biotinyl-Ile-oxazolone. The series is described as follows: self-aminoacylation, catalytic enhancement (BIO) (fold over background); higher = more active; k-Seq, kA / k0A0; sequences stand for … in GGGAAUGGAUCCACAUCUACGAAUUC…UUCACUGCAGACUUGACGAAGCUG
The essentials: as §1

The next series concerns biotinyl-Met-oxazolone. The series is described as follows: self-aminoacylation, catalytic enhancement (BMO) (fold over background); higher = more active; k-Seq, kA / k0A0; sequences stand for … in GGGAAUGGAUCCACAUCUACGAAUUC…UUCACUGCAGACUUGACGAAGCUG
The method in brief: as §1

Another series has as its system biotinyl-Val-oxazolone. In words: self-aminoacylation, catalytic enhancement (BVO) (fold over background); higher = more active; k-Seq, kA / k0A0; sequences stand for … in GGGAAUGGAUCCACAUCUACGAAUUC…UUCACUGCAGACUUGACGAAGCUG
The essentials: as §1

A further series concerns biotinyl-Leu-oxazolone. The series is described as follows: self-aminoacylation, catalytic enhancement (BLO) (fold over background); higher = more active; k-Seq, kA / k0A0; sequences stand for … in GGGAAUGGAUCCACAUCUACGAAUUC…UUCACUGCAGACUUGACGAAGCUG
The essentials:
as §1

A further series deals with biotinyl-Trp-oxazolone. In words: self-aminoacylation, catalytic enhancement (BWO) (fold over background); higher = more active; k-Seq, kA / k0A0; sequences stand for … in GGGAAUGGAUCCACAUCUACGAAUUC…UUCACUGCAGACUUGACGAAGCUG
The method in brief:
as §1

This sample holds only a part of the variants without activity.

Take “CCACCCUUAAAGCAAUCGGUC [Fam1B.1 aminoacylation ribozyme variant]”: the self-aminoacylation in the series with biotinyl-Phe-oxazolone is 1.59; in the series with biotinyl-Ile-oxazolone, 1.23; in the series on biotinyl-Met-oxazolone, 0.96; in the series with biotinyl-Val-oxazolone, 1.18; in the series on biotinyl-Leu-oxazolone, 1.05; in the series on biotinyl-Trp-oxazolone, 1.4.
On to “CCACACUUCAAGCAAUCAGCC [Fam1B.1 aminoacylation ribozyme variant]”, for which the self-aminoacylation came out at 3.01 in the series with biotinyl-Phe-oxazolone; 1.04 with biotinyl-Ile-oxazolone; 0.884 in the series with biotinyl-Met-oxazolone; 1.72 with biotinyl-Val-oxazolone; 1.51 with biotinyl-Leu-oxazolone; 2.26 in the series with biotinyl-Trp-oxazolone.
On to “CCACACUUCCAGCAAUCGGCC [Fam1B.1 aminoacylation ribozyme variant]”, for which the self-aminoacylation in the series with biotinyl-Phe-oxazolone turned out to be 3.34; in the series with biotinyl-Ile-oxazolone, 3.06; in the series on biotinyl-Met-oxazolone it was 2.08; in the series on biotinyl-Val-oxazolone it was 4.01; in the series on biotinyl-Leu-oxazolone it was 2.42; in the series on biotinyl-Trp-oxazolone it was 4.06.
Take “CUACUGCAGACAAUCGGUCUG [Fam1A.1 aminoacylation ribozyme variant]”: the self-aminoacylation in the series on biotinyl-Phe-oxazolone came out at 0.577; in the series on biotinyl-Ile-oxazolone, 0.897; in the series with biotinyl-Met-oxazolone, 1.06; in the series with biotinyl-Val-oxazolone, 1.04; in the series on biotinyl-Leu-oxazolone, 1.07; with biotinyl-Trp-oxazolone, 0.497.
On to “AUUCACCUAGGUCAUCCGAUG [Fam2.2 aminoacylation ribozyme variant]”, for which the self-aminoacylation with biotinyl-Phe-oxazolone came to 2.62; with biotinyl-Ile-oxazolone, 1.43; in the series with biotinyl-Met-oxazolone it was 1.54; in the series on biotinyl-Val-oxazolone, 1.95; in the series with biotinyl-Leu-oxazolone, 1.24; in the series on biotinyl-Trp-oxazolone, 1.09.
Consider “AUUAACCUGGUCAACGAGUGA [Fam2.1 aminoacylation ribozyme variant]”, for which the self-aminoacylation in the series with biotinyl-Phe-oxazolone turned out to be 22.5; in the series with biotinyl-Ile-oxazolone, 2.78; in the series on biotinyl-Met-oxazolone, 5.37; with biotinyl-Val-oxazolone it was 2.85; in the series on biotinyl-Leu-oxazolone it was 5.45; with biotinyl-Trp-oxazolone, 6.7.
As for “AUUACCCUGGUCAUUCAGUGA [Fam2.1 aminoacylation ribozyme variant]”, the self-aminoacylation is 14.1 in the series with biotinyl-Phe-oxazolone; 3.33 with biotinyl-Ile-oxazolone; 4.7 with biotinyl-Met-oxazolone; 3.16 with biotinyl-Val-oxazolone; 5.37 in the series on biotinyl-Leu-oxazolone; 6.28 in the series with biotinyl-Trp-oxazolone.
For the sequence “AUCCACCUAGGUCAUCCGGUG [Fam2.2 aminoacylation ribozyme variant]”, the self-aminoacylation in the series on biotinyl-Phe-oxazolone was 46.1; in the series with biotinyl-Ile-oxazolone, 5.53; with biotinyl-Met-oxazolone, 7.38; in the series on biotinyl-Val-oxazolone, 6.56; in the series with biotinyl-Leu-oxazolone it was 7.31; in the series on biotinyl-Trp-oxazolone, 7.83.
With “AUUACCCUGAACAUCGAGUGA [Fam2.1 aminoacylation ribozyme variant]”, the self-aminoacylation in the series on biotinyl-Phe-oxazolone was determined as 24.2; in the series with biotinyl-Ile-oxazolone, 3.4; with biotinyl-Met-oxazolone, 6.65; with biotinyl-Val-oxazolone it was 3.35; with biotinyl-Leu-oxazolone, 6.97; in the series on biotinyl-Trp-oxazolone it was 8.05.
In the case of “ACUCACCUAGGUCAUCGGAUG [Fam2.2 aminoacylation ribozyme variant]”, the self-aminoacylation amounted to 0.718 in the series on biotinyl-Phe-oxazolone; 1.13 in the series on biotinyl-Ile-oxazolone; 0.912 in the series with biotinyl-Met-oxazolone; 1.02 in the series on biotinyl-Val-oxazolone; 0.812 with biotinyl-Leu-oxazolone; 1.48 with biotinyl-Trp-oxazolone.
On to “AUUCACCUCGGUCAUCGGAUG [Fam2.2 aminoacylation ribozyme variant]”, for which the self-aminoacylation in the series with biotinyl-Phe-oxazolone came to 0.352; in the series with biotinyl-Ile-oxazolone it was 0.927; in the series on biotinyl-Met-oxazolone it was 0.789; in the series with biotinyl-Val-oxazolone, 1; in the series on biotinyl-Leu-oxazolone, 0.794; with biotinyl-Trp-oxazolone it was 0.751.
In the case of “AAGAUUGCUAAUAGUCGCGAG [Fam3.1 aminoacylation ribozyme variant]”, the self-aminoacylation is 1.27 with biotinyl-Phe-oxazolone; 1.3 in the series with biotinyl-Ile-oxazolone; 1.94 in the series on biotinyl-Met-oxazolone; 1.44 in the series on biotinyl-Val-oxazolone; 1.1 in the series on biotinyl-Leu-oxazolone; 1.1 with biotinyl-Trp-oxazolone.
For “CUACCGCAAACAAUCGGUCUG [Fam1A.1 aminoacylation ribozyme variant]”, the self-aminoacylation stood at 2.36 with biotinyl-Phe-oxazolone; 0.857 with biotinyl-Ile-oxazolone; 0.981 with biotinyl-Met-oxazolone; 0.961 in the series on biotinyl-Val-oxazolone; 0.896 in the series with biotinyl-Leu-oxazolone; 0.689 with biotinyl-Trp-oxazolone.
Regarding “AAGUUUGCUAAUAUUCUCAAG [Fam3.1 aminoacylation ribozyme variant]”, the self-aminoacylation in the series on biotinyl-Phe-oxazolone amounted to 1.04; in the series with biotinyl-Ile-oxazolone, 1.1; with biotinyl-Met-oxazolone it was 1.17; in the series on biotinyl-Val-oxazolone, 1.18; with biotinyl-Leu-oxazolone it was 1.15; with biotinyl-Trp-oxazolone it was 1.48.
As for “AUGAACCUAGGUCAUCGGGUG [Fam2.2 aminoacylation ribozyme variant]”, the self-aminoacylation amounted to 24.6 with biotinyl-Phe-oxazolone; 4.29 in the series with biotinyl-Ile-oxazolone; 5.97 with biotinyl-Met-oxazolone; 4.28 with biotinyl-Val-oxazolone; 7.54 in the series on biotinyl-Leu-oxazolone; 6.44 in the series with biotinyl-Trp-oxazolone.
As to “AUUACCCUGGUCAUAGCGUGA [Fam2.1 aminoacylation ribozyme variant]”, the self-aminoacylation turned out to be 51.8 in the series on biotinyl-Phe-oxazolone; 4.12 with biotinyl-Ile-oxazolone; 8.87 in the series with biotinyl-Met-oxazolone; 4.99 in the series with biotinyl-Val-oxazolone; 9.18 in the series on biotinyl-Leu-oxazolone; 10.6 with biotinyl-Trp-oxazolone.
Regarding “AUUAACCUGGUCAUCGAGUGA [Fam2.1 aminoacylation ribozyme variant]”, the self-aminoacylation is 8.46 in the series on biotinyl-Phe-oxazolone; 3.97 in the series with biotinyl-Ile-oxazolone; 7.3 in the series with biotinyl-Met-oxazolone; 4.02 in the series on biotinyl-Val-oxazolone; 7.64 with biotinyl-Leu-oxazolone; 8.57 in the series with biotinyl-Trp-oxazolone.
For “CGACACUUCAUGCAAUCGGUC [Fam1B.1 aminoacylation ribozyme variant]”, the self-aminoacylation in the series with biotinyl-Phe-oxazolone worked out at 1.34; with biotinyl-Ile-oxazolone, 1.05; in the series on biotinyl-Met-oxazolone, 0.971; in the series on biotinyl-Val-oxazolone it was 1.17; with biotinyl-Leu-oxazolone, 0.932; in the series on biotinyl-Trp-oxazolone it was 0.973.
On to “CCACACUUCAUGCAAUGGGUC [Fam1B.1 aminoacylation ribozyme variant]”, for which the self-aminoacylation with biotinyl-Phe-oxazolone was found to be 0.544; in the series with biotinyl-Ile-oxazolone, 0.751; in the series with biotinyl-Met-oxazolone, 0.738; with biotinyl-Val-oxazolone it was 0.712; in the series with biotinyl-Leu-oxazolone, 0.704; in the series on biotinyl-Trp-oxazolone, 0.569.
Turning to “CUACUUCAAAGAAUCGGUUUG [Fam1A.1 aminoacylation ribozyme variant]”, the self-aminoacylation was 5.29 in the series with biotinyl-Phe-oxazolone; 0.892 in the series on biotinyl-Ile-oxazolone; 0.933 with biotinyl-Met-oxazolone; 0.785 with biotinyl-Val-oxazolone; 0.845 with biotinyl-Leu-oxazolone; 4.68 with biotinyl-Trp-oxazolone.
Regarding “CUACACUUCAAGCUAUCGGUC [Fam1B.1 aminoacylation ribozyme variant]”, the self-aminoacylation with biotinyl-Phe-oxazolone is 0.833; in the series with biotinyl-Ile-oxazolone, 0.87; in the series on biotinyl-Met-oxazolone, 0.746; with biotinyl-Val-oxazolone it was 0.876; in the series on biotinyl-Leu-oxazolone, 0.692; in the series with biotinyl-Trp-oxazolone, 0.608.
Take “CUACUGCAAACAACCGGUCUG [Fam1A.1 aminoacylation ribozyme variant]”: the self-aminoacylation in the series with biotinyl-Phe-oxazolone was 2.5; in the series on biotinyl-Ile-oxazolone it was 1.02; in the series on biotinyl-Met-oxazolone it was 0.762; in the series on biotinyl-Val-oxazolone, 0.836; in the series with biotinyl-Leu-oxazolone, 0.953; in the series on biotinyl-Trp-oxazolone, 0.804.
On to “GUUCACCUACGUCAUCGGGUG [Fam2.2 aminoacylation ribozyme variant]”, for which the self-aminoacylation with biotinyl-Phe-oxazolone turned out to be 31; with biotinyl-Ile-oxazolone it was 3.26; in the series with biotinyl-Met-oxazolone, 4.35; with biotinyl-Val-oxazolone, 3.69; with biotinyl-Leu-oxazolone, 5.15; with biotinyl-Trp-oxazolone it was 4.3.
In the case of “CUACAUCAAACAAUCGGUGUG [Fam1A.1 aminoacylation ribozyme variant]”, the self-aminoacylation is 0.672 with biotinyl-Phe-oxazolone; 0.722 in the series with biotinyl-Ile-oxazolone; 1.03 in the series on biotinyl-Met-oxazolone; 0.803 in the series on biotinyl-Val-oxazolone; 1.16 with biotinyl-Leu-oxazolone; 0.626 with biotinyl-Trp-oxazolone.
On to “AUUCACCUAGGCCAUCGUGUG [Fam2.2 aminoacylation ribozyme variant]”, for which the self-aminoacylation came to 2.6 in the series with biotinyl-Phe-oxazolone; 0.998 in the series on biotinyl-Ile-oxazolone; 0.898 with biotinyl-Met-oxazolone; 0.966 in the series on biotinyl-Val-oxazolone; 0.946 with biotinyl-Leu-oxazolone; 0.88 in the series with biotinyl-Trp-oxazolone.
